Laboratory results as given in patent US20240058465A1 (SUTRO BIOPHARMA, published 2024).
Residue numbers refer to the chain shown, from its start.

B1: SRP2196-A08 (antibody, V domains shown)
VH: EVQLVESGGGLVQPGGSLRLSCAASGFNITGYYIHWVRQAPGKGLEWVGYISPNSGSTYKADSVKGRFTISADTSRNTAYLQMNSLRAEDTAVYYCARDSRRYVRSWDYWGQGTLVTVSS
VL: QAVVTQESALTTSPGETVTLTCRSSTGAVTTSNYANWVQEKPDHLFTGLIGGTNKRAPGVPARFSGSLIGDKAALTITGAQTEDEAIYFCALWYSNLWVFGGGTKLTVL
notes: His/FLAG-tagged IgG1
B2: SRP2196-A09 (antibody, V domains shown)
VH: B1 VH with Y50Q, S57A, Y59H, K60Y, R76K, V104I
VL: B1 VL
notes: His/FLAG-tagged IgG1
B3: SRP1944-A07 w SP34 LC3 (antibody, V domains shown)
VH: B1 VH with K60Y, R76K, S106P, W107F
VL: QTVVTQEPSLTVSPGGTVTLTCGSSTGAVTSGYYPNWFQQKPGQAPRGLIGGTKFLAPGTPARFSGSLLGGKAALTLSGVQPEDEAEYYCALWYSNRWVFGGGTQLTVTG
notes: Parent of SRP2196; IgG
B4: SRP2196-C01 (antibody, V domains shown)
VH: B1 VH with T30I, Y50S, S52T, N54L, S57A, Y59S, R76K, V104I
VL: B1 VL
notes: His/FLAG-tagged IgG1
B5: SRP2196-C03 (antibody, V domains shown)
VH: B1 VH with Y50Q, K60S, R76K, N84S, R105L
VL: B1 VL
notes: His/FLAG-tagged IgG1
B6: SRP2196-C02 (antibody, V domains shown)
VH: B1 VH with Y33H, Y50F, S57W, K60S, R76K, S106P, W107F
VL: B1 VL
notes: His/FLAG-tagged IgG1
B7: SRP2196-A10 (antibody, V domains shown)
VH: B1 VH with S57A, Y59H, K60Y, T74I, R76K, Y94H
VL: B1 VL
notes: His/FLAG-tagged IgG1
B8: SRP2196-C04 (antibody, V domains shown)
VH: B1 VH with Y50F, S52A, N54L, Y59H, K60N, R76K, D99E, R105N, S106P
VL: B1 VL
notes: His/FLAG-tagged IgG1; also called Antibody 162
B9: SRP2196-B06 (antibody, V domains shown)
VH: B1 VH with Y50Q, K60S, R76K, R105L
VL: B1 VL
notes: His/FLAG-tagged IgG1
B10: SRP2196-B01 (antibody, V domains shown)
VH: B1 VH with Y50Q, S57Y, K60Y, R76K, A79T
VL: B1 VL
notes: His/FLAG-tagged IgG1
B11: SRP2196-B03 (antibody, V domains shown)
VH: B1 VH with V12A, S57A, Y59H, K60Y, R76K, S106P, W107F
VL: B1 VL
notes: His/FLAG-tagged IgG1
B12: SRP2196-B04 (antibody, V domains shown)
VH: B1 VH with G31E, S57A, K60Q, R76K, S106G
VL: B1 VL
notes: His/FLAG-tagged IgG1
B13: SRP2196-B09 (antibody, V domains shown)
VH: B1 VH with G15E, G31E, K60Y, R76K
VL: B1 VL
notes: His/FLAG-tagged IgG1; also called Antibody 160
B14: SRP2196-B02 (antibody, V domains shown)
VH: B1 VH with G31Q, S57Q, K60D, R76K
VL: B1 VL
notes: His/FLAG-tagged IgG1
B15: SRP2196-B10 (antibody, V domains shown)
VH: B1 VH with Y50S, S52T, N54L, S57A, Y59S, R76K, V104I
VL: B1 VL
notes: His/FLAG-tagged IgG1; also called Antibody 167
B16: SRP2196-B11 (antibody, V domains shown)
VH: B1 VH with K43R, Y50Q, S57Y, K60Y, R76K, V104I
VL: B1 VL
notes: His/FLAG-tagged IgG1
B17: SRP2196-A11 (antibody, V domains shown)
VH: B1 VH with Y50Q, S57T, K60D, R76K, S106G
VL: B1 VL
notes: His/FLAG-tagged IgG1
B18: SRP2188-A06 (antibody, IgG1, V domains shown)
VH: EVQLVESGGGLVQPGGSLRLSCAASGFNIKSYDIHWVRQAPGKGLEWVGWINPDDGDTYHADSVKGRFTISADTSKNTAYLQMNSLRAEDTAVYYCARDYGVFDYWGQGTLVTVSS
VL: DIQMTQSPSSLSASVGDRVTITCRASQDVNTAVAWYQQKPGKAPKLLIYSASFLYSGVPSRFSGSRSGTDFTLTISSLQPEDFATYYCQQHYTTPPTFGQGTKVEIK
notes: IgG1 with trastuzumab LC; HIS- and FLAG-tagged; cell-free expressed
B19: SRP2188-B02 (antibody, IgG1, V domains shown)
VH: B18 VH with K30S, H60L, N77S
VL: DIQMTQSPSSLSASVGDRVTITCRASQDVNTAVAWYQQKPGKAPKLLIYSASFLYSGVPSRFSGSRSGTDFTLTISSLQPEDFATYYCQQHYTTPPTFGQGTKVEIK
notes: as for B18
B20: SRP2188-C01 (antibody, IgG1, V domains shown)
VH: B18 VH with K30I, G49S, W50L, N52D, D54H, D57S, Y59D, H60S
VL: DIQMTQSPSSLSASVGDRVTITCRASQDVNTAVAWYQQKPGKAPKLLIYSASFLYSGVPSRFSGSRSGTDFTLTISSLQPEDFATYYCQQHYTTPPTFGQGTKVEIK
notes: as for B18
B21: SRP2188-E07 (antibody, IgG1, V domains shown)
VH: B18 VH with K30G, S31D, D33G, W50G, N52D, D54E, D57F, Y59V, F103Y
VL: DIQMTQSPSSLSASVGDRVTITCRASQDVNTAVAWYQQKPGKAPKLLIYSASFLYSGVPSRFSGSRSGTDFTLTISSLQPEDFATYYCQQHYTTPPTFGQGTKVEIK
notes: as for B18
B22: SRP2188-E08 (antibody, IgG1, V domains shown)
VH: B18 VH with K30I, S31D, Y32F, W50G, N52D, D54Q, D57S, Y59D, H60L, F68L
VL: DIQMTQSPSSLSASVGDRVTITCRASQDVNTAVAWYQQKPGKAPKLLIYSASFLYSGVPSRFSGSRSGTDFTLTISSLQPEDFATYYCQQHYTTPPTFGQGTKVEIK
notes: as for B18
B23: SRP2188-E11 (antibody, IgG1, V domains shown)
VH: B18 VH with K30S, S31H, G49S, W50G, N52D, D54G, D57A, Y59D
VL: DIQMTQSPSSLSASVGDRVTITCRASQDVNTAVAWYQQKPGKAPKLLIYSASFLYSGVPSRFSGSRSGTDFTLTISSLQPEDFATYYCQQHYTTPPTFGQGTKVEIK
notes: as for B18
B24: SRP2188-B11 (antibody, IgG1, V domains shown)
VH: B18 VH with K30N, S31R, Y59F, H60L, N77S
VL: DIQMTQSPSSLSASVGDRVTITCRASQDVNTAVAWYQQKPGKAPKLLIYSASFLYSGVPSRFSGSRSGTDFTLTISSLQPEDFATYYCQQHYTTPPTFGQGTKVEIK
notes: as for B18
B25: SRP2188-C08 (antibody, IgG1, V domains shown)
VH: B18 VH with Y32H
VL: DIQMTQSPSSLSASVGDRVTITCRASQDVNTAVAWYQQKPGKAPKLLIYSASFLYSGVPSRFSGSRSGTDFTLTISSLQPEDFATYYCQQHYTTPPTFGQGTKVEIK
notes: as for B18
B26: SRP2188-C10 (antibody, IgG1, V domains shown)
VH: B18 VH with K30N
VL: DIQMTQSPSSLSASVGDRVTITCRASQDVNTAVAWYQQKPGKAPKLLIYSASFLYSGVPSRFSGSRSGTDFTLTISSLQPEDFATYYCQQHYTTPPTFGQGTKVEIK
notes: as for B18
B27: SRP2188-C06 (antibody, IgG1, V domains shown)
VH: B18 VH with K30N, H60L
VL: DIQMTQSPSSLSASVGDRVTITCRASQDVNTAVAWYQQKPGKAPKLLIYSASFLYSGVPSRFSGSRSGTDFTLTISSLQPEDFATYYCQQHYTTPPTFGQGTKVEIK
notes: as for B18
B28: SRP2188-E09 (antibody, IgG1, V domains shown)
VH: B18 VH with K30S, S31D, Y32F, G49A, W50E, N52D, D54Q, D57W, Y59V
VL: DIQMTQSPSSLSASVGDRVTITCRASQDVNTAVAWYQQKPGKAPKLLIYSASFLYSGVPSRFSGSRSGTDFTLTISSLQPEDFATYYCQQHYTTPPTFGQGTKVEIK
notes: as for B18

target: T1, human ROR1 Frizzled domain (hROR1-Fz) (human, UniProt Q01973 165-305); assay: SPR Biacore, IgG on anti-Fc, ROR1-Fz analyte
T1 construct: Acro Biosystems, made in HEK293
Protocol: Anti-Fc polyclonal antibodies were immobilized onto a CMS chip (GE Life Sciences) using amine coupling chemistry (from Amine Coupling Kit, GE Life Sciences). The immobilization steps were carried out at a flow rate of 25 μL/min in 1×HBS-EP+buffer (GE Life Sciences; 10× Stock diluted before use). The sensor surfaces were activated for 7 min with a mixture of NHS (0.05 M) and EDC (0.2 M). The Anti-Fc antibodies were injected over all 4 flow cells at a concentration of 25 ug/ml in 10 mM sodium acetate, pH 4.5, for 7 min. Ethanolamine (1 M, pH 8.5) was injected for 7 min to block any remaining activated groups.
Off-rate and kinetic binding experiments were performed at 25° C. using 1×HBS-EP+buffer. Test and control antibodies were injected over the anti-Fc surface at concentrations of 5-10 μg/mL for 12 seconds at a flow rate of 10 μL/min on flow cells 2, 3 and 4, followed by a buffer wash for 30 seconds at the same flow rate. […] After capturing ligand (antibody) on the anti-Fc surface, the analyte (hROR1, Fz or Kr domains, Acro Biosystems, Delaware) was bound for 180 seconds, followed by a 600 second dissociation phase at a flow rate of 50 μL/min. Between each ligand capture and analyte binding cycle, regeneration was carried out using 2 injections of 10 mM Glycine pH 2.0 for 30 seconds at 30 μL/min, followed by a 30 second buffer wash step.

Row | Kd | koff | kon | Binder
1 | 4.26 nM | 0.00078 s⁻¹ | 183000 M⁻¹ s⁻¹ | B1
2 | 3.79 nM | 0.000568 s⁻¹ | 150000 M⁻¹ s⁻¹ | B2
3 | 14.3 nM | 0.0085 s⁻¹ | 597000 M⁻¹ s⁻¹ | B3
4 | 3.66 nM | 0.000457 s⁻¹ | 125000 M⁻¹ s⁻¹ | B4
5 | 3.23 nM | 0.000461 s⁻¹ | 143000 M⁻¹ s⁻¹ | B5
6 | 3.02 nM | 0.00036 s⁻¹ | 119000 M⁻¹ s⁻¹ | B6
7 | 2.78 nM | 0.000479 s⁻¹ | 172000 M⁻¹ s⁻¹ | B7
8 | 5.35 nM | 0.000704 s⁻¹ | 131000 M⁻¹ s⁻¹ | B8
9 | 2.98 nM | 0.000423 s⁻¹ | 142000 M⁻¹ s⁻¹ | B9
10 | 3.06 nM | 0.000401 s⁻¹ | 131000 M⁻¹ s⁻¹ | B10
11 | 7.64 nM | 0.000945 s⁻¹ | 124000 M⁻¹ s⁻¹ | B11
12 | 2.78 nM | 0.000352 s⁻¹ | 127000 M⁻¹ s⁻¹ | B12
13 | 3.28 nM | 0.000427 s⁻¹ | 130000 M⁻¹ s⁻¹ | B13
14 | 1.39 nM | 0.000227 s⁻¹ | 163000 M⁻¹ s⁻¹ | B14
15 | 2.61 nM | 0.000334 s⁻¹ | 128000 M⁻¹ s⁻¹ | B15
16 | 4.36 nM | 0.000597 s⁻¹ | 137000 M⁻¹ s⁻¹ | B16
17 | 4.16 nM | 0.000792 s⁻¹ | 191000 M⁻¹ s⁻¹ | B17

target: T2, human ROR1 (hROR1) expressed on cells (human, UniProt Q01973 30-937); assay: flow cytometry, HCT116-hROR1 cells
T2 construct: Mino cells are the target positive cells of the killing assay; also called receptor tyrosine kinase like orphan receptor 1; HCT 116-hROR1
Protocol: (§1) A mix of ROR1 positive and negative cells was prepared as follows. Ror1 negative cells were washed 2× in PBS then incubated in PBS containing 1 nM CellTrace™ Oregon Green488® (Life Technologies) at 37° C. for 30 minutes. Cells were then washed 2× with RPMI w/10% fetal calf serum (or FCS), washed 2× with FACS buffer (PBS+0.5% BSA), suspended thoroughly in ice-cold FACS buffer at a final concentration of 4×10^6 cells/ml and kept on ice. ROR1 positive cells were washed 2× in PBS and suspended with ice-cold FACS buffer at 4×10^6 cells/ml. ROR1 positive and negative cells were then mixed to obtain a 1-1 cell suspension and seeded at 50 μl per well on 96 well polypropylene plates. 50 μl of 6-12 point dilutions of anti-ROR1 variants starting from concentrations of ˜100-200 nM antibody was dispensed using BioMekFX (Beckman Coulter) into each well. Cells were then incubated on ice for 1 hr, washed with FACS buffer and incubated for 1 hr on ice with 50 μl FACS buffer containing 2.5 μg/ml Alexa647-conjugated Goat Anti-Human IgG dispensed using BioMekFX (Beckman Coulter). Cells were then washed 2× with FACS buffer and fixed for 10 minutes in 200 μl PBS with 2% PFA prior to fluorescence detection. Samples were acquired using a Beckton Dickinson LSRII FACS. Mean Fluorescence Intensity of ROR1 antibody binding was analyzed using FlowJo® software (Tree Star, Inc.).

Row | Bmax (MFI) | Kd | Binder
18 | 8950 MFI | 0.02 nM | B18
19 | 9760 MFI | 0.03 nM | B19
20 | 10100 MFI | 0.38 nM | B20
21 | 7600 MFI | 0.02 nM | B21
22 | 9330 MFI | 0.03 nM | B22
23 | 9250 MFI | 0.03 nM | B23
24 | 8730 MFI | 0.04 nM | B24
25 | 8570 MFI | 0.03 nM | B25
26 | 9310 MFI | 0.05 nM | B26
27 | 9580 MFI | 0.03 nM | B27
28 | 9780 MFI | 0.02 nM | B28

target: T3, human ROR1 (hROR1) (human, UniProt Q01973 30-937); assay: flow cytometry, HCT116-hROR1 cells
T3 construct: On HCT116-hROR1 transfectants, Mino cells or Ntera-2 cells, as the assay of each row says; also called receptor tyrosine kinase like orphan receptor 1
Protocol: as §1

Row | Bmax (MFI) | Kd | Binder
29 | 13900 MFI | 0.2 nM | B1
30 | 14600 MFI | 0.2 nM | B2
31 | 13200 MFI | 0.1 nM | B3
32 | 15700 MFI | 0.3 nM | B4
33 | 15000 MFI | 0.4 nM | B5
34 | 15300 MFI | 0.6 nM | B6
35 | 14400 MFI | 0.3 nM | B7
36 | 13800 MFI | 0.5 nM | B8
37 | 14800 MFI | 0.4 nM | B9
38 | 15300 MFI | 0.3 nM | B10
39 | 15600 MFI | 0.6 nM | B11
40 | 14400 MFI | 0.5 nM | B12
41 | 15000 MFI | 0.6 nM | B13
42 | 14900 MFI | 0.3 nM | B14
43 | 14700 MFI | 0.3 nM | B15
44 | 14700 MFI | 0.2 nM | B16
45 | 14000 MFI | < 0.05 nM | B17
